Data from publication doi:10.1101/2024.09.27.615443 (bioRxiv, 2024).

Target: recombinant TGF-β1/GARP (Homo sapiens, UniProt P01137;Q14392)
Assay: ELISA

recombinant TGF-β1/GARP, sequence (P01137 30-390, chain 1 of 2): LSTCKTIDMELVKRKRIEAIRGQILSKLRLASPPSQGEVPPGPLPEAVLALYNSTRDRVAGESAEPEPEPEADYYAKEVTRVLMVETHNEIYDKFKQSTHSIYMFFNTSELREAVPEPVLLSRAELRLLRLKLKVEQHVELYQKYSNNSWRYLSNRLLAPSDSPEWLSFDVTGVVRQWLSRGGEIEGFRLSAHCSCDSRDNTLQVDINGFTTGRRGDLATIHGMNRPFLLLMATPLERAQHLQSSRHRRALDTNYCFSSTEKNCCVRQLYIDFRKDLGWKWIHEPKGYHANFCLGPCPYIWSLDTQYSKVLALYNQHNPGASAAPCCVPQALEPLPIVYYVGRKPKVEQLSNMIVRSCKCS
recombinant TGF-β1/GARP, sequence (Q14392 20-662, chain 2 of 2): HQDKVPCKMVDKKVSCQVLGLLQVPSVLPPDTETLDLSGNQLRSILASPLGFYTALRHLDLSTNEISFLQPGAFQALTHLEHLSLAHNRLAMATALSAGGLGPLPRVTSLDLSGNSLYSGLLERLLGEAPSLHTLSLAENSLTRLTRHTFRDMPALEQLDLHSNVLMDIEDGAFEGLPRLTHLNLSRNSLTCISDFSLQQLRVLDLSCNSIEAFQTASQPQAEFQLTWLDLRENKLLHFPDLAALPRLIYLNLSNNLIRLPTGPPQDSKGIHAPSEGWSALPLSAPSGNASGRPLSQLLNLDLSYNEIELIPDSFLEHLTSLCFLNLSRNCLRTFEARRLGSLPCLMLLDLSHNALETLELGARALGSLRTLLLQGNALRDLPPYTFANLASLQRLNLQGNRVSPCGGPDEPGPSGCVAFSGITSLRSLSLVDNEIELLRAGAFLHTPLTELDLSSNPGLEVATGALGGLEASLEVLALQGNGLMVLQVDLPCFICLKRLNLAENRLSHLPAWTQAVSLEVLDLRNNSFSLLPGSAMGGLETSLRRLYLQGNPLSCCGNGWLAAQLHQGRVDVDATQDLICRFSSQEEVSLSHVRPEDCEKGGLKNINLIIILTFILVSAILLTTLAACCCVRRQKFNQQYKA

B1: monoclonal antibody clone 28G11 (antibody, V domains shown)
VH: EVKLVESGGGLVQPGGSLSLSCAASGFTFTDYYMSWVRQPPGKALEWLGFIRNKPNGYTTEYSASVKGRFTISRDNSQSILYLQMNVLRAEDSATYYCARYTGGGYFDYWGQGTTLTVSS
VL: DIQMTQTTSSLSASLGDRLTISCRASQDISNYLNWYQQKPDGTVKLLIYYTSRLHSGVPSRFSGSGSGTDYSLTISNLEQADIATYFCQQGDTLPWTFGGGTKLEIK
  binding result: binds
